Assay results published in patent publication CN115057938A (dated 2022).

B1: R1463 (VHH)
VHH: QVQLVESGGGVVQPGGSLRLSCTCSRCTFNWDGMGWFRQAPGKGLEFVATISWSGQEPAYADSVKGRFTISRDNSKNTLYLQMTSLRAEDTAVYYCAAAQYTGASYSILRDQVGYDYWGQGTLVTVSS
notes: also called RX017 VHH-His标签; 对照
B2: R1475 (VHH, not shown: small tags and cut ends)
VHH 1: QVQLVESGGGVVQPGGSLRLSCTCSRCTFNWDGMGWFRQAPGKGLEFVATISWSGQEPAYADSVKGRFTISRDNSKNTLYLQMTSLRAEDTAVYYCAAAQYTGASYSILRDQVGYDYWGQGTLVTVSS
VHH 2: QVQLVESGGGVVQPGGSLRLSCTCSRCTFNWDGMGWFRQAPGKGLEFVATISWSGQEPAYADSVKGRFTISRDNSKNTLYLQMTSLRAEDTAVYYCAAAQYTGASYSILRDQVGYDYWGQGTLVTVSS
notes: also called 人源化多价结合蛋白 R1475; VHH-Linker-VHH-His标签
B3: R1464 (VHH, not shown: small tags and cut ends)
chain (part 1 of 3): HHHHHHQVQLVESGGGVVQPGGSLRLSCTCSRCTFNWDGMGWFRQAPGKGLEFVATISWSGQEPAYADSVKGRFTISRDNSKNTLYLQMTSLRAEDTAVYYCAAAQYTGASYSILRDQVGYDYWGQGTLVTVSS
chain (part 2 of 3): QVQLVESGGGVVQPGGSLRLSCTCSRCTFNWDGMGWFRQAPGKGLEFVATISWSGQEPAYADSVKGRFTISRDNSKNTLYLQMTSLRAEDTAVYYCAAAQYTGASYSILRDQVGYDYWGQGTLVTVSS
chain (part 3 of 3): QVQLVESGGGVVQPGGSLRLSCTCSRCTFNWDGMGWFRQAPGKGLEFVATISWSGQEPAYADSVKGRFTISRDNSKNTLYLQMTSLRAEDTAVYYCAAAQYTGASYSILRDQVGYDYWGQGTLVTVSS
notes: also called 人源化多价结合蛋白 R1464; His标签-VHH-Linker-VHH-Linker-VHH

Biological target: T1, Delta变异株SARS-COV-2 RBD蛋白(Ag101) (SARS-COV-2 Delta变异株, UniProt P0DTC2 319-541)
T1 construct: domain: RBD; also called Delta variant SARS-COV-2 RBD protein
Assay: competition ELISA: Delta RBD coated, blocks ACE2 binding

| Binder | IC50 [pM] |
| --- | --- |
| B1 | 18.1 |
| B2 | 3.34 |
| B3 | 4.32 |
